Publication PMC6606709, “Granzyme A Stimulates pDCs to Promote Adaptive Immunity via Induction of Type I IFN” (Frontiers in Immunology, 2019)

Biological target: the molecule itself
Test: SDS-PAGE under reduced and non-reduced conditions; reduced and non-reduced GzmA run on 10-12 % SDS-PAGE, Coomassie Brilliant Blue stain

B1: recombinant granzyme A (GzmA), mouse, residues 29-260, histidine-tagged (enzyme, UniProt P11032 29-260, looked up)
chain: IIGGDTVVPHSRPYMALLKLSSNTICAGALIEKNWVLTAAHCNVGKRSKFILGAHSINKEPEQQILTVKKAFPYPCYDEYTREGDLQLVRLKKKATVNRNVAILHLPKKGDDVKPGTRCRVAGWGRFGNKSAPSETLREVNITVIDRKICNDEKHYNFHPVIGLNMICAGDLRGGKDSCNGDSGSPLLCDGILRGITSFGGEKCGDRRWPGVYTFLSDKHLNWIKKIMKGSV
notes: mouse granzyme A, residues 29-260; also called recombinant GzmA
Question: With B1 as the protein, how does the “stoichiometry N” value read?
Answer: 2
